Assay results reported in patent publication US20100093076A1, “SOLUBLE IL-27 RECEPTOR” (priority 2006, published 2010).
“And” between values parts separate entries of the source, which are not always exact repeats. Equal values may be shown once.

Columns and labels:
[1] = biological target: T1, single-chain mouse IL-27 (Mus musculus, UniProt O35228+Q8K3I6); test: IL-27 inhibition of IL-2 production neutralized by IL-27RA Fc (third set of experiments); assay type: cell-based; conditions: + IL-27 (10 ng/ml)
T1 sequence (O35228+Q8K3I6 with tags, fused parts or gaps): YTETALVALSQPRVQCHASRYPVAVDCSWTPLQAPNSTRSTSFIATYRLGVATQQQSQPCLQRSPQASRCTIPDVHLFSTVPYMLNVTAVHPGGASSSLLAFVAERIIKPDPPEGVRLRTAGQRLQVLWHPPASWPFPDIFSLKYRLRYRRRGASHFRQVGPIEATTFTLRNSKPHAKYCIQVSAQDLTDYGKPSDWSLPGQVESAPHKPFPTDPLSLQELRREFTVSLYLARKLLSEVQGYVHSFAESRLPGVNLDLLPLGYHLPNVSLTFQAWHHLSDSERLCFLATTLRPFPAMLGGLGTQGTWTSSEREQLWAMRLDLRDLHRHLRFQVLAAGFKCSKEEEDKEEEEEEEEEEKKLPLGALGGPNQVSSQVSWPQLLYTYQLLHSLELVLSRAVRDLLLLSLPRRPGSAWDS
Protocol: Naïve mouse CD4 T-cells were isolated as described above. For testing of the neutralizing mAbs, the naïve CD4 T cells were preincubated for 30 minutes at 37 degrees C. with graded concentrations (60, 30, 15, 7.5, 3.75, 1.875.micro.g/ml) of either neutralizing rat anti-mouse IL27RA mAb (each mAb tested separately), rat IgG1 isotype control mAb, rat IgG2a isotype control mAb, or no mAb. […] The CD4 T cells (4×10^5/well) were then transferred to anti-CD3 coated tissue culture plates. Single-chain mouse IL-27 (10 ng/ml) was then added to the plates. Duplicate plates were set up for all experimental conditions. The plates were then cultured at 37 degrees for up to 72 hours.
For testing of the soluble receptor, single-chain mouse IL-27 (10 ng/ml) was preincubated for 30 minutes at 37 degrees C. with either IL27RAm(mFc1) (10.0 and 5.0.micro.g/ml), IL27RA-Fc5, mouse Fc1 protein (10.0 and 5.0.micro.g/ml), human Fc5 protein (10.0 and 5.0.micro.g/ml), or no recombinant protein in wells of the anti-CD3 coated plates. 4×10^5 CD4^+ CD62L high cells were added to the wells. Duplicate plates were set up for all experimental conditions. The plates were then cultured at 37 degrees for up to 72 hours. Cell supernatants were collected from one set of plates at 48 hours and from the duplicate set of plates at 72 hours. The supernatants were stored frozen at −80° C.

[2] = Pharmacokinetics of soluble receptors in female C57B1/6 mice (serum ELISA, noncompartmental analysis); assay type: in vivo, mouse; conditions: for AUCINF: extrapolated to infinity
Protocol: Studies were performed to evaluate the pharmacokinetics of the mouse (IL-27RAm(mFc1)) and human (IL-27RA-Fc5) soluble receptors in female C57B1/6 mice.
Serum was generated from each sample and analyzed by a qualified enzyme-linked immunosorbant assay (ELISA). The resulting mean serum concentration versus time profiles were then subjected to noncompartmental pharmacokinetic analyses. The following pharmacokinetic parameters were calculated: C0 and Cmax (extrapolated concentration at time zero and maximum serum concentration, respectively), Tmax (time to achieve maximum concentration), t1/2 λz (terminal half-life), AUC0-t (area under the concentration versus time curve from time zero to the last measurable time point), AUCINF (area under the concentration versus time curve extrapolated to infinity), C1 or C1/F (clearance or clearance divided by bioavailable fraction, respectively), VSS or VZ/F (steady state volume of distribution or volume of distribution divided by the bioavailable fraction, respectively), and F (bioavailable fraction).

[3] = biological target: T2, mouse ligand (single-chain IL27: EBI3 linked to IL-27 p28) (Mus musculus, UniProt O35228+Q8K3I6); test: Surface plasmon resonance (BIACORE 3000) kinetic rate and affinity constants; assay type: binding; conditions: SPR
T2 construct: purchased R&D Systems
T2 sequence (O35228+Q8K3I6 with tags, fused parts or gaps): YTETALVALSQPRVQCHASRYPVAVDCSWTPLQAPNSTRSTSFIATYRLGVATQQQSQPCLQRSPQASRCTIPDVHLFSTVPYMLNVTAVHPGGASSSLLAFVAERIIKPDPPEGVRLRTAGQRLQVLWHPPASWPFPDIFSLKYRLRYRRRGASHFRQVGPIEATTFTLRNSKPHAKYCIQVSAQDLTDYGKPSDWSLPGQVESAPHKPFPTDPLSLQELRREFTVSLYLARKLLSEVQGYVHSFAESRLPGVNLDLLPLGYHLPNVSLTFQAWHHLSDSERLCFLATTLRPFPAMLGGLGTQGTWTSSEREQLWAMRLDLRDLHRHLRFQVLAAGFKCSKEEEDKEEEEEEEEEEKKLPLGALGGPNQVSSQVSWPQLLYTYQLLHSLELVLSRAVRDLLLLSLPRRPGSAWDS
Protocol: Kinetic rate and affinity constant values for the mouse (IL27RAm(mFc1), Example 1) and human (IL27RA-Fc5, Example 2) soluble receptors were obtained by surface plasmon resonance (SPR) using an automated instrument (BIACORE 3000; Biacore International AB, Uppsala, Sweden). The mouse soluble receptor was tested against mouse ligand (lot A1418F), and the human soluble receptor was tested against both mouse (A1426F) and human (A1534F) ligands. For determination of the kinetic rate constants for the receptor-ligand interactions, the gp130 molecule was not included as part of the receptor complex.
The IL27 ligands used in this study were single-chain molecules comprising EBI3 connected by its C-terminus to the N-terminus of IL-27 p28 via a polypeptide linker. (R&D Systems) Each of the ligands included an amino-terminal peptide tag.
For the mouse IL27RA study, the soluble receptor was captured onto the chip surface by an isotype-specific anti-mouse Fc antibody (obtained from Jackson ImmunoResearch Laboratories, Inc., West Grove, Pa.) covalently immobilized to the chip (BIACORE CM5 chip) using the standard amine coupling protocol specified by the instrument manufacturer. For the human IL27RA studies, the soluble receptor was directly and covalently immobilized to the chip via the amine coupling protocol. In all studies, ligand was injected over the active (receptor-bound) surface at varying concentrations to obtain a series of binding curves.
Experimental conditions were optimized for determination of kinetic rate constant values. The molecular densities of the soluble receptor protein loaded onto the chip surface were targeted to obtain maximum IL27 binding levels (Rmax) of ≦20 RU. The analyte (ligand) was injected over the receptor surface at a flow rate of […] at a concentration range of approximately 0.05 to 10 nM, allowing for an association phase of 3 minutes and a dissociation phase of 10 minutes. […]
All data were assessed using software provided with the instrument (BIACORE Evaluation software v. 3.2). […]

IL-2 concentration ([1]; 48 hr, protein conc. 5 (μg/ml; Fc controls in molar equiv.)): 4021.15 pg/mL
IL-2 concentration ([1]; 48 hr, protein conc. 10 (μg/ml; Fc controls in molar equiv.), listed as mIL-27RA): 5215.59 pg/mL and 4922.26 pg/mL
IL-2 concentration ([1]; 72 hr, protein conc. 5 (μg/ml; Fc controls in molar equiv.)): 5744.95 pg/mL
IL-2 concentration ([1]; 72 hr, protein conc. 10 (μg/ml; Fc controls in molar equiv.), listed as mIL-27RA): 6704.62 pg/mL and 12186.7 pg/mL
ka ([3]; 1:1 binding model): 1e+07 M⁻¹ s⁻¹
kd ([3]; 1:1 binding model): 0.0012 s⁻¹
Kd ([3]; Kd=kd/ka): 0.12 nM
B1: IL-27RAm(mFc1): Extracellular domain of mouse IL27RA fused to a wild type BALB/c mouse gamma2a constant region Fc tag (protein)
chain: MNRLERVALARLETPRLEGLLELELESLEMSLELELEGTRPRHGSPRGPRLEQCYSVGPRLEGILENCSWGLPRLEGDLEGLTPRPRVLEYHQSQKYHPRNRVWGLVKVPRSKQSWVTIPRRGLQFTMADKLELEIWGTQKGRPRLEWSSVSVASNLEGLTQMKPRDTPRQIFSQVASPISGLGLATLEGLATVQWAPRPRVWPRPRQKALETCQFRYKGLCQAGLAWTRLEGLPRQLEKTDGLETPRVGLMQNLEGLPRGTCYQVSGRCQVGLNGYPRWGGLWSSPRLESFQTPRFLEDPRGLDVWVSGTVCGLTSGKRAALELEVWKDPRRPRCVQVTYTVWFGAGDITTTQGLGLVPRCCKSPRVPRAWMGLWAVVSPRGNSTSWVPRPRTNLESLEVCLEAPRGLSAPRCDVGVSSADGSPRGIKVTWKQGTARGSPRLEGLYVVASPWAQDGDSLEDKLENWTRLEPRPRGNLESTLELEPRGGLFKGGVPRYRITVTAVYSGGLEAAAPRSVWGFRGLGLLEVPRLEAGPRAVWRLEPRDDPRPRGTPRVVALAWGGLVPRRHQLERGQATHYTFCIQSRGLESTVCRNVSSQTQTATLEPRNLEHSGSFKLEWVTVSTVALAGQGPRPRGPRDLESLEHLEPRDNRIRWKALEPRWFLESLEWGLELELEMGCGLESLEASTRCLEQARCLEHWRHKLELEPRQWIWGLRVPRDPRANSNSGQPRYIKGLVSLEPRQPRPRKDGPRILEGLVGLGLVGLLEQPRVVGLSPRKASAPRIYSGYGLKHFLEPRTPRGLGLLEGLELEV
modifications: left off: a dimerising Fc or GST
notes: Extracellular domain of mouse IL27RA fused to a wild type BALB/c mouse gamma2a constant region Fc tag
AUC0-24 ([2]; IP, 100 μg): 98.2 µg·h/mL
Cl/F ([2]; IP, 100 μg): 0.983 mL/h
Tmax ([2]; IP, 100 μg): 1 h
t1/2 λz (terminal half-life) ([2]; IP, 100 μg): 5.17 h
Cmax ([2]; IP, 100 μg, mouse serum): 13200 ng/mL
AUCINF ([2]; IP, 100 μg): 102 µg·h/mL
AUC0-24 ([2]; IV, 100 μg): 157 µg·h/mL
Cl ([2]; IV, 100 μg): 0.618 mL/h
Vss ([2]; IV, 100 μg): 3.05 mL
t1/2 λz (terminal half-life) ([2]; IV, 100 μg): 5.25 h
Co (extrapolated concentration at time zero) ([2]; IV, 100 μg, mouse serum): 36.2 µg/mL
AUCINF ([2]; IV, 100 μg): 162 µg·h/mL
AUC0-24 ([2]; SC, 100 μg): 56.5 µg·h/mL
Tmax ([2]; SC, 100 μg): 3 h
Cmax ([2]; SC, 100 μg, mouse serum): 7950 ng/mL
clearance compared to IL-27RA-Fc5 ([2]; female C57B1/6 mice): more rapid clearance
